Experimental findings from publication PMC7145599, “Cooperative DNA binding by proteins through DNA shape complementarity” (Nucleic Acids Research, 2019) are described below.

Data set [1] has as its system Xis-Arg39Ala (phage lambda). Kind of data set: EMSA. The following applies: no Fis; cooperative; EMSA: 20 mM HEPES pH 7.5, 0.1 M NaCl, 5% glycerol, 500 ug/ml BSA, 1 mM EDTA, 1 mM DTT, 25 C; competitor 50 ug/ml poly dI/dC (34 bp), 5 ug/ml poly dI/dC (Fig 2) ….
Data set [2] deals with Xis-Arg39Lys (phage lambda). Nature of the data set: EMSA. The following applies: no Fis; stepwise, non-cooperative; EMSA: 20 mM HEPES pH 7.5, 0.1 M NaCl, 5% glycerol, 500 ug/ml BSA, 1 mM EDTA, 1 mM DTT, 25 C; competitor 50 ug/ml poly dI/dC (34 bp), 5 ug/ml poly dI/dC (Fig 2) …. On the technique in general: Mobility shift assays separate free from complexed probe on a gel.
Data set [3] has as its target Fis;Xis-wt (phage lambda) (UniProt P0A6R3). Kind of data set: EMSA. The following applies: apparent Kd of Xis for Fis-bound DNA; 4 nM Fis; EMSA: 20 mM HEPES pH 7.5, 0.1 M NaCl, 5% glycerol, 500 ug/ml BSA, 1 mM EDTA, 1 mM DTT, 25 C; competitor 50 ug/ml poly dI/dC (34 bp), 5 ug/ml poly dI/dC (Fig 2) ….
In data set [4] the target is T1, Fis;Xis1-55 (Escherichia coli?;phage lambda, UniProt P0A6R3;P03699 1-98;1-55, |C28S). Kind of data set: X-ray crystallography; FX1-2-1Xis, 3.60 A; Xis at X2; EMSA: 20 mM HEPES pH 7.5, 0.1 M NaCl, 5% glycerol, 500 ug/ml BSA, 1 mM EDTA, 1 mM DTT, 25 C; competitor 50 ug/ml poly dI/dC (34 bp), 5 ug/ml poly dI/dC (Fig 2). The following applies: protein: recombinant;recombinant; tags: ;; chain copies: 2;1.

The target in data set [5] is Fis;Xis1-55 (two protomers) (Escherichia coli?;phage lambda, UniProt P0A6R3;P03699 1-98;1-55, |C28S). Nature of the data set: X-ray crystallography; FX1-2-2Xis, 3.30 A; second Xis over X1 in reverse orientation; EMSA: 20 mM HEPES pH 7.5, 0.1 M NaCl, 5% glycerol, 500 ug/ml BSA, 1 mM EDTA, 1 mM DTT, 25 C; competitor 50 ug/ml poly dI/dC (34 bp), 5 ug/ml poly dI/dC (Fig 2). The following applies: protein: recombinant;recombinant; tags: ;; chain copies: 2;2.

In data set [6] the target is T1, Fis;Xis1-55. Kind of data set: X-ray crystallography; FX2, 2.7 A; EMSA: 20 mM HEPES pH 7.5, 0.1 M NaCl, 5% glycerol, 500 ug/ml BSA, 1 mM EDTA, 1 mM DTT, 25 C; competitor 50 ug/ml poly dI/dC (34 bp), 5 ug/ml poly dI/dC (Fig 2). The following applies: protein: recombinant;recombinant; tags: ;; chain copies: 2;1.
Data set [7] concerns the molecule itself. Kind of data set: crystal structure; Fis dimer and Xis^1-55 co-bound to 27 bp DNA duplexes (FX2, FX1-2-1Xis, FX1-2-2Xis); complexes formed in 20 mM Tris-HCl pH 7.5, 200 mM Na acetate; crystals grown at 4°C in 0.1 M HEPES pH 7-7.5, 15% PEG4000.
The target of data set [8] is T1, Fis;Xis1-55. Nature of the data set: X-ray crystallography (Br anomalous); EMSA: 20 mM HEPES pH 7.5, 0.1 M NaCl, 5% glycerol, 500 ug/ml BSA, 1 mM EDTA, 1 mM DTT, 25 C; competitor 50 ug/ml poly dI/dC (34 bp), 5 ug/ml poly dI/dC (Fig 2). The following applies: protein: recombinant;recombinant; tags: ;; chain copies: 2;1.

attR 263 bp: the binding signal (fold lower affinity than Xis-wt) in data set [1] amounted to 15; in data set [2], 10. In the case of F-X2 34 bp (CA, native), the Kd in data set [3] was found to be 400 nM.

B1: FX1-2 27 bp (dsDNA)
DNA 1: AATGTTGTGTTTTTAACAGACTACATT
DNA 2: AATGTAGTCTGTTAAAAACACAACATT
With B1, the binding result (in the data set with Fis;Xis1-55 [4]; in data set [5]) was “binds” in each case.

B2: FX2 27 bp (dsDNA)
DNA 1: AATTTTGCATAAAAAACAGACTACATT
DNA 2: AATGTAGTCTGTTTTTTATGCAAAATT
For the molecule B2, the binding result in the data set with Fis;Xis1-55 [6] is given as “binds”.

B3: Escherichia coli Fis protein (natural protein)
chain: MFEQRVNSDVLTVSTVNSQDQVTQKPLRDSVKQALKNYFAQLNGQDVNDLYELVLAEVEQPLLDMVMQYTRGNQTRAALMMGINRGTLRKKLKKYGMN
notes: Fis, bacterial nucleoid / DNA architectural protein of Escherichia coli; the N-terminal beta-hairpin arms are not resolved in the crystals; also called Fis dimer
Turning to B3, the stoichiometry N (commonly a count of units in the complex or per binding partner) in data set [7] amounted to 2.

B4: FX1-2 27 bp 5-BrdU (dsDNA)
DNA 1: AATGTTGTGTTTTTAACAGACTACATT
DNA 2: AATGTAGTCTGTTAAAAACACAACATT
modifications: 5-bromodeoxyuridine at asterisked T positions (incl. nt 8 and 12 from the central T)
Consider B4, for which the binding result with Fis;Xis1-55 [8] was “binds”.

B5: Xis^1-55 (phage lambda Xis residues 1-55 with a cysteine to serine substitution at residue 28) (domain or fragment, UniProt P03699 1-55, looked up)
chain: MYLTLQEWNARQRRPRSLETVRRWVRESRIFPPPVKDGREYLFHESAVKVDLNRP
notes: Used for crystallography; The full-length Cys28Ser xis gene (pRJ2178, pET11a) was used for the gel shift assays on DNA, which are not written here; also called Xis protomer; Xis monomer
On to B5, for which the binding result in data set [7] was “binds”.
